By Tm is commonly meant the temperature at which the thermal transition is half complete.

Data on 10 variants can be found in FireProtDB (doi:10.1002/cbic.201402128).

Values joined by “and” are separate entries in the source; they are usually repeats but may differ in a detail not shown here. Equal values may be shown once.

B1: Haloalkane dehalogenase, D4Z2G1 (parent)
chain: MSLGAKPFGEKKFIEIKGRRMAYIDEGTGDPILFQHGNPTSSYLWRNIMPHCAGLGRLIACDLIGMGDSDKLDPSGPERYAYAEHRDYLDALWEALDLGDRVVLVVHDWGSALGFDWARRHRERVQGIAYMEAIAMPIEWADFPEQDRDLFQAFRSQAGEELVLQDNVFVEQVLPGLILRPLSEAEMAAYREPFLAAGEARRPTLSWPRQIPIAGTPADVVAIARDYAGWLSESPIPKLFINAEPGALTTGRMRDFCRTWPNQTEITVAGAHFIQEDSPDEIGAAIAAFVRRLRPA

The data set covers variants of B1. As to conditions: Sphingobium indicum (strain DSM 16413 / CCM 7287 / MTCC 6362 / UT26 / NBRC 101211 / UT26S); pH 7.5; Thermal; fluorescence; Na-Hepes 50 mM; reversible: no; structure 1MJ5; whole UniProt chain shown.

For MSLGCKPFGEKKFIEIKGRRMAYIDEGTGDPILFQHGNPTSSYLWRNIMPHCAGLGRLIACDLIGMGDSDKLDPSGPERYAYAEHRDYLDALWEALDLGDRVVLVVHDWGSALGFDWARRHRERVQGIAYMEAIAMPIEWADFPEQDRDLFQAFRSQAGEELVLQDNVFVEQVLPGLILRPLSECEMAAYREPFLAAGEARRPTLSWPRQIPIAGTPADVVAIARDYAGWLSESPIPKLFINAEPGALTTGRMRDFCRTWPNQTEITVAGAHFIQEDSPDEIGAAIAAFVRRLRPA [A5C A185C], the Tm is 56 °C and 55.5 °C; the “change of melting temperature, mutant - wild type (higher = more stable)” value (“change of melting temperature, mutant” below) is 5 °C and 6.5 °C.

MSLGAKPFGEKKFITIKGRRMAYIDEGTGDPILFQHGNPTSSYLWRNIMPHCAGLGRLIACDLIGMGDSDKLDPSGPERYAYAEHRDYLDALWEALDLGDRVVLVVHDWGSALGFDWARRHRERVQGIAYMEAIAMPIEWADFPEQDRDLFQAFRSQAGEELVLQDNVFVEQVLPGLILRPLSEAEMAAYREPFLAAGEARRPTLSWPRQIPIAGTPADVVAIARDYAGWLSESPIPKLFINAEPGALTTGRMRDFCRTWPNQTEITVAGAHFIQEDSPDEIGAAIAAFVRRLRPA [E15T]: the Tm came out at 52 °C and the “change of melting temperature, mutant” value worked out at 1 °C.

In the case of MSLGLKPFGEKKFIEIKGRRMAYIDEGTGDPILFQHGNPTSSYLWRNIMPHCAGLGRLIACDLIGMGDSDKLDPSGPERYAYAEHRDYLDALWEALDLGDRVVLVVHDWGSALGFDWARRHRERVQGIAYMEAIAMPIEWADFPEQDRDLFQAFRSQAGEELVLQDNVFVEQVLPGLILRPLSEAEMAAYREPFLAAGEARRPTLSWPRQIPIAGTPADVVAIARDYAGWLSESPIPKLFINAEPGALTTGRMRDFCRTWPNQTEITVAGAHFIQEDSPDEIGAAIAAFVRRLRPA [A5L], the Tm was determined as 50 °C and the “change of melting temperature, mutant” value is -1 °C.

On to MSLGEKPFGEKKFIEIKGRRMAYIDEGTGDPILFQHGNPTSSYLWRNIMPHCAGLGRLIACDLIGMGDSDKLDPSGPERYAYAEHRDYLDALWEALDLGDRVVLVVHDWGSALGFDWARRHRERVQGIAYMEAIAMPIEWADFPEQDRDLFQAFRSQAGEELVLQDNVFVEQVLPGLILRPLSEAEMAAYREPFLAAGEARRPTLSWPRQIPIAGTPADVVAIARDYAGWLSESPIPKLFINAEPGALTTGRMRDFCRTWPNQTEITVAGAHFIQEDSPDEIGAAIAAFVRRLRPA [A5E], for which the Tm is 51.5 °C and the “change of melting temperature, mutant” value stood at 0.5 °C.

Regarding MSLGAKPFGEKKFIEIKGRCMAYIDEGTGDPILFQHGNPTSSYLWRNIMPHCAGLGRLIACDLIGMGDSCKLDPSGPERYAYAEHRDYLDALWEALDLGDRVVLVVHDWGSALGFDWARRHRERVQGIAYMEAIAMPIEWADFPEQDRDLFQAFRSQAGEELVLQDNVFVEQVLPGLILRPLSEAEMAAYREPFLAAGEARRPTLSWPRQIPIAGTPADVVAIARDYAGWLSESPIPKLFINAEPGALTTGRMRDFCRTWPNQTEITVAGAHFIQEDSPDEIGAAIAAFVRRLRPA [R20C D70C], the Tm came to 45.5 °C and the “change of melting temperature, mutant” value is -3.5 °C.

MSLGAKPFGEKKFIEIKGRRMAYIDQGTGDPILFQHGNPTSSYLWRNIMPHCAGLGRLIACDLIGMGDSDKLDPSGPERYAYAEHRDYLDALWEALDLGDRVVLVVHDWGSALGFDWARRHRERVQGIAYMEAIAMPIEWADFPEQDRDLFQAFRSQAGEELVLQDNVFVEQVLPGLILRPLSEAEMAAYREPFLAAGEARRPTLSWPRQIPIAGTPADVVAIARDYAGWLSESPIPKLFINAEPGALTTGRMRDFCRTWPNQTEITVAGAHFIQEDSPDEIGAAIAAFVRRLRPA [E26Q]: the Tm amounted to 51 °C and the “change of melting temperature, mutant” value was determined as 0 °C.

Take MSLGAKPFGEKKFIEIKGRRMAYIDRGTGDPILFQHGNPTSSYLWRNIMPHCAGLGRLIACDLIGMGDSDKLDPSGPERYAYAEHRDYLDALWEALDLGDRVVLVVHDWGSALGFDWARRHRERVQGIAYMEAIAMPIEWADFPEQDRDLFQAFRSQAGEELVLQDNVFVEQVLPGLILRPLSEAEMAAYREPFLAAGEARRPTLSWPRQIPIAGTPADVVAIARDYAGWLSESPIPKLFINAEPGALTTGRMRDFCRTWPNQTEITVAGAHFIQEDSPDEIGAAIAAFVRRLRPA [E26R]: the Tm was determined as 50 °C and the “change of melting temperature, mutant” value is -1 °C.

Turning to MSLGAKPFGEKKFIEIKGRRMAYIDHGTGDPILFQHGNPTSSYLWRNIMPHCAGLGRLIACDLIGMGDSDKLDPSGPERYAYAEHRDYLDALWEALDLGDRVVLVVHDWGSALGFDWARRHRERVQGIAYMEAIAMPIEWADFPEQDRDLFQAFRSQAGEELVLQDNVFVEQVLPGLILRPLSEAEMAAYREPFLAAGEARRPTLSWPRQIPIAGTPADVVAIARDYAGWLSESPIPKLFINAEPGALTTGRMRDFCRTWPNQTEITVAGAHFIQEDSPDEIGAAIAAFVRRLRPA [E26H], the Tm came to 50 °C and the “change of melting temperature, mutant” value was -1 °C.

For the variant MSLGAKPFGEKKFIEIKGRRMAYIDVGTGDPILFQHGNPTSSYLWRNIMPHCAGLGRLIACDLIGMGDSDKLDPSGPERYAYAEHRDYLDALWEALDLGDRVVLVVHDWGSALGFDWARRHRERVQGIAYMEAIAMPIEWADFPEQDRDLFQAFRSQAGEELVLQDNVFVEQVLPGLILRPLSEAEMAAYREPFLAAGEARRPTLSWPRQIPIAGTPADVVAIARDYAGWLSESPIPKLFINAEPGALTTGRMRDFCRTWPNQTEITVAGAHFIQEDSPDEIGAAIAAFVRRLRPA [E26V], the Tm worked out at 51 °C and the “change of melting temperature, mutant” value came to 0 °C.

For MSLGAKPFGEKKFIEIKGRRMAYIDEGTGEPILFQHGNPTSSYLWRNIMPHCAGLGRLIACDLIGMGDSDKLDPSGPERYAYAEHRDYLDALWEALDLGDRVVLVVHDWGSALGFDWARRHRERVQGIAYMEAIAMPIEWADFPEQDRDLFQAFRSQAGEELVLQDNVFVEQVLPGLILRPLSEAEMAAYREPFLAAGEARRPTLSWPRQIPIAGTPADVVAIARDYAGWLSESPIPKLFINAEPGALTTGRMRDFCRTWPNQTEITVAGAHFIQEDSPDEIGAAIAAFVRRLRPA [D30E], the Tm came out at 51 °C and the “change of melting temperature, mutant” value turned out to be 0 °C.
